Data as given in the RNAGym collection of RNA variant scans (doi:10.7554/elife.80360).

B1: Hammerhead Ribozyme (parent)
chain: ACCGGAUGUGCUUUCCGGUCUGAUGAGUCCGUGAGGACGAAACAG

Variants of: B1
Assay: self-cleavage, relative activity (ratio to wild type); higher = more cleavage; co-transcriptional

Question: For ACCGGAUGUGCUUUCCGGUGUGAUGAGUCCGUGAGGACGGAACAG [C20G A40G], which self-cleavage is on record?
Answer: The self-cleavage was 0.324.

Question: With ACCGGAUGUGCUUUCCGGGCUGAUGAGUCCGUGAGGACCAAACAG [U19G G39C] as the variant, how does the self-cleavage read?
Answer: Its self-cleavage is 0.297.

Question: For AUCGGAUGUGCUUUCCGGUCUGAUGAGUCCGUGAGGACGAAAGAG [C2U C43G], which self-cleavage is on record?
Answer: Its self-cleavage is 0.372.

Question: For ACCAGAUGUGCUUUCCGGUGUGAUGAGUCCGUGAGGACGAAACAG [G4A C20G], which self-cleavage is on record?
Answer: The self-cleavage was 0.334.

Question: For ACCCGCUGUGCUUUCCGGUCUGAUGAGUCCGUGAGGACGAAACAG [G4C A6C], which self-cleavage is on record?
Answer: Its self-cleavage is 0.251.

Question: Which self-cleavage does the source give for ACCGGUUGUGCUUUCCGGUCUGAUGAGACCGUGAGGACGAAACAG [A6U U28A] here?
Answer: The self-cleavage was 0.377.

Question: Which self-cleavage does the source give for ACCGGAUGUGCUUUCCAGUCUGAUGAGUCCGUGAGGAAGAAACAG [G17A C38A] here?
Answer: The self-cleavage was 0.488.

Question: Which self-cleavage does the source give for ACCGGAUGUGCUUUCCGUUCUGAUGCGUCCGUGAGGACGAAACAG [G18U A26C] here?
Answer: Its self-cleavage is 0.328.

Question: For ACCGGAUGUGCUUUCCGGUUUGAUGAGUCCGUGAGGACGAAACAC [C20U G45C], which self-cleavage is on record?
Answer: Its self-cleavage is 0.471.

Question: With ACCGGAUGUGCUUUCCGGUCUGAUCAGUCCGUGAGGACGAAAUAG [G25C C43U] as the variant, how does the self-cleavage read?
Answer: Its self-cleavage is 0.425.

Question: Which self-cleavage does the source give for ACCGGAUGUGCUUUCCGGUGUGAUGAGUCCGUGAGGACGAAACGG [C20G A44G] here?
Answer: Its self-cleavage is 0.629.

Question: With ACCGGAGGUACUUUCCGGUCUGAUGAGUCCGUGAGGACGAAACAG [U7G G10A] as the variant, how does the self-cleavage read?
Answer: Its self-cleavage is 1.72.

Question: With ACCGGAUGUGCUUUCCGGUCUGGUGAGUCCGUGCGGACGAAACAG [A23G A34C] as the variant, how does the self-cleavage read?
Answer: The self-cleavage was 0.338.

Question: For ACCGGACGUGCUUUCUGGUCUGAUGAGUCCGUGAGGACGAAACAG [U7C C16U], which self-cleavage is on record?
Answer: Its self-cleavage is 1.06.

Question: Which self-cleavage does the source give for ACCGGAUGUGCUUUCGGGUCUGAUGAGUCCGUGAGUACGAAACAG [C16G G36U] here?
Answer: Its self-cleavage is 0.314.

Question: Which self-cleavage does the source give for ACCGGAUGUGCUUUCCGGACUGAUGAGUUCGUGAGGACGAAACAG [U19A C29U] here?
Answer: Its self-cleavage is 0.376.

Question: For ACCGGAUGUGCUUUCCGGCCUGAUGAUUCCGUGAGGACGAAACAG [U19C G27U], which self-cleavage is on record?
Answer: Its self-cleavage is 0.311.

Question: For ACCGGAUUUGCUUUCCGGUCUGAUGAGUCCGUGAGGACGAUACAG [G8U A41U], which self-cleavage is on record?
Answer: Its self-cleavage is 0.34.

Question: With ACCGGAUGUGCUUUCCGGUCUGAUGAGUCCGUGAGGACGCGACAG [A40C A41G] as the variant, how does the self-cleavage read?
Answer: Its self-cleavage is 0.307.

Question: Which self-cleavage does the source give for ACCGCAUUUGCUUUCCGGUCUGAUGAGUCCGUGAGGACGAAACAG [G5C G8U] here?
Answer: Its self-cleavage is 0.693.

Question: Which self-cleavage does the source give for ACCGGAUGUGCUUUCCGGUCUGAUGAGUCCGUGAGGACCAAACCG [G39C A44C] here?
Answer: The self-cleavage was 0.437.

Question: With AUCGGAUGUGCUUUCCGGUCUGAUGAGUCCGUGAGGACGAAACGG [C2U A44G] as the variant, how does the self-cleavage read?
Answer: The self-cleavage was 1.55.

Question: With ACCGGAUCUGCUUUCCGUUCUGAUGAGUCCGUGAGGACGAAACAG [G8C G18U] as the variant, how does the self-cleavage read?
Answer: Its self-cleavage is 0.611.

Question: For ACCGGGUGUGCUUUCCGGUCUGACGAGUCCGUGAGGACGAAACAG [A6G U24C], which self-cleavage is on record?
Answer: The self-cleavage was 0.944.

Question: For ACCCGAUGUGCUUUCCGGUCUGAUGAGUCCGUGAGGACGAAACAG [G4C], which self-cleavage is on record?
Answer: The self-cleavage was 0.784.

Question: For ACCGGAUUUGCUUUCCGGUCUGAUGAGUCCGUGAGGACGAACCAG [G8U A42C], which self-cleavage is on record?
Answer: The self-cleavage was 0.422.

Question: Which self-cleavage does the source give for ACCGGAUGUGCUUUCCGGUCUGAUGAGUCCCUGAAGACGAAACAG [G31C G35A] here?
Answer: Its self-cleavage is 0.966.

Question: Which self-cleavage does the source give for ACCGGAUGUGCUUUCCGGUCUGAUGAGUCCGUGAGGACAAAACGG [G39A A44G] here?
Answer: The self-cleavage was 0.718.

Question: For ACCGGAUGUGCUUUCCGGCCUGAUGAGUCCGUGAGGACGAAUCAG [U19C A42U], which self-cleavage is on record?
Answer: Its self-cleavage is 0.212.

Question: For ACCGGAUGUGCUUUCCGGCCUGAUGAGUCCGUGAGGACGAAGCAG [U19C A42G], which self-cleavage is on record?
Answer: Its self-cleavage is 0.279.

Question: For ACCGGUUGUGCUUUCCAGUCUGAUGAGUCCGUGAGGACGAAACAG [A6U G17A], which self-cleavage is on record?
Answer: Its self-cleavage is 0.401.

Question: With ACCGGAUGUGCUUUCCGAUCAGAUGAGUCCGUGAGGACGAAACAG [G18A U21A] as the variant, how does the self-cleavage read?
Answer: The self-cleavage was 0.401.

Question: Which self-cleavage does the source give for ACCGGAUGUGCUUUCCGGUCUGAUGUGUCCGUGAGGACGAAAAAG [A26U C43A] here?
Answer: Its self-cleavage is 0.33.

Question: With ACCGGAUGUGCUUUCAGGUGUGAUGAGUCCGUGAGGACGAAACAG [C16A C20G] as the variant, how does the self-cleavage read?
Answer: Its self-cleavage is 0.316.

Question: Which self-cleavage does the source give for ACCAGAUGUGCUUUCCGGUCUGAUGAGUCCGAGAGGACGAAACAG [G4A U32A] here?
Answer: Its self-cleavage is 0.579.

Question: Which self-cleavage does the source give for ACCGGAUGUGCUUUCCGGUCUGAUGUGUUCGUGAGGACGAAACAG [A26U C29U] here?
Answer: Its self-cleavage is 0.598.

Question: For ACCGGAUGUGCUUUCCGGUCUGAUGAGUCCUUGAGGGCGAAACAG [G31U A37G], which self-cleavage is on record?
Answer: The self-cleavage was 0.899.

Question: Which self-cleavage does the source give for ACCGGAUGUGCUUUCCGGUCUGAUGAGUCCGUGAUGACGCAACAG [G35U A40C] here?
Answer: Its self-cleavage is 0.374.

Question: With ACCGGAUGUGCUCUACGGUCUGAUGAGUCCGUGAGGACGAAACAG [U13C C15A] as the variant, how does the self-cleavage read?
Answer: Its self-cleavage is 0.834.

Question: With ACCGGAUGUGCUUUCCGGUCUGAUGGGUCCGUGUGGACGAAACAG [A26G A34U] as the variant, how does the self-cleavage read?
Answer: Its self-cleavage is 0.353.

Question: Which self-cleavage does the source give for ACCGGAUGGGCUUUCCGGUCUGAUGAGUCCGUGAGGACGAAACAU [U9G G45U] here?
Answer: The self-cleavage was 0.454.

Question: Which self-cleavage does the source give for ACCGGAUGUGCUUUCCGGCCGGAUGAGUCCGUGAGGACGAAACAG [U19C U21G] here?
Answer: Its self-cleavage is 0.221.

Question: Which self-cleavage does the source give for ACCGGAUGUGCCUUCCGGUUUGAUGAGUCCGUGAGGACGAAACAG [U12C C20U] here?
Answer: The self-cleavage was 0.395.

Question: With ACCGGAUGUCCUUUCCGGUCUGAUGAGUCCCUGAGGACGAAACAG [G10C G31C] as the variant, how does the self-cleavage read?
Answer: Its self-cleavage is 0.704.

Question: For ACCGGAUGUGCUUUCCGGUCUGAUGAGUCCGUGAGAUCGAAACAG [G36A A37U], which self-cleavage is on record?
Answer: The self-cleavage was 0.533.

Question: With ACCGGAUGUGCUUUGCGGUCUGAUGAGUCCGUGAGGACGAAAUAG [C15G C43U] as the variant, how does the self-cleavage read?
Answer: The self-cleavage was 0.248.

Question: With ACCGGAUGUGCUUUCCGGUCUGAUGAGUCCGUGACGAUGAAACAG [G35C C38U] as the variant, how does the self-cleavage read?
Answer: Its self-cleavage is 0.67.

Question: With ACCGGAUGUGCUUUCCGGUCUGAUCAAUCCGUGAGGACGAAACAG [G25C G27A] as the variant, how does the self-cleavage read?
Answer: Its self-cleavage is 0.285.

Question: Which self-cleavage does the source give for UCCGGAUGUGCUUUCCGGUCUGAUGAGUCCGUGAGGACGUAACAG [A1U A40U] here?
Answer: The self-cleavage was 0.349.

Question: For ACCGGAUGUGCUGUCCGGUCUGAUGAGUCCGUGAGGACGAAAAAG [U13G C43A], which self-cleavage is on record?
Answer: Its self-cleavage is 0.369.

Question: For CCCGGAUGUGCUUUCCGGUCUGAUGAGUCCGUUAGGACGAAACAG [A1C G33U], which self-cleavage is on record?
Answer: Its self-cleavage is 0.561.

Question: For ACCGGAUGUACUUUCCGGUCUGAUGAGUCCGUGACGACGAAACAG [G10A G35C], which self-cleavage is on record?
Answer: The self-cleavage was 0.763.

Question: Which self-cleavage does the source give for ACCGGAUGUGCUUUCUGGUCUGAUGAAUCCGUGAGGACGAAACAG [C16U G27A] here?
Answer: The self-cleavage was 0.858.

Question: Which self-cleavage does the source give for ACCGGAUGUGCUUUCCGGUCUGAUGAGUCCGUGAGGCGGAAACAG [A37C C38G] here?
Answer: Its self-cleavage is 0.381.

Question: Which self-cleavage does the source give for ACCGGAUGUGCUUUCCGGUCUGAGGAGUCCGUGAGGACGUAACAG [U24G A40U] here?
Answer: The self-cleavage was 0.308.

Question: With ACCGUAUGUGCUUUCCGGUCUGAUGAGCCCGUGAGGACGAAACAG [G5U U28C] as the variant, how does the self-cleavage read?
Answer: Its self-cleavage is 0.458.

Question: With ACCGGAUGUGCUGUCCGGUCUGAUGAGUCCGUGAGGACGUAACAG [U13G A40U] as the variant, how does the self-cleavage read?
Answer: Its self-cleavage is 0.303.
